Results published in publication PMC6750108, “Crystal Structure of 4-Hydroxyphenylpyruvate Dioxygenase in Complex with Substrate Reveals a New Starting Point for Herbicide Discovery” (Research, 2019).
Positions count from the first letter of the chain named. Names and notes keep the numbering of the source.

B1: AtHPPD (Arabidopsis thaliana) (protein)
chain: MGHQNAAVSENQNHDDGAASSPGFKLVGFSKFVRKNPKSDKFKVKRFHHIEFWCGDATNVARRFSWGLGMRFSAKSDLSTGNMVHASYLLTSGDLRFLFTAPYSPSLSAGEIKPTTTASIPSFDHGSCRSFFSSHGLGVRAVAIEVEDAESAFSISVANGAIPSSPPIVLNEAVTIAEVKLYGDVVLRYVSYKAEDTEKSEFLPGFERVEDASSFPLDYGIRRLDHAVGNVPELGPALTYVAGFTGFHQFAEFTADDVGTAESGLNSAVLASNDEMVLLPINEPVHGTKRKSQIQTYLEHNEGAGLQHLALMSEDIFRTLREMRKRSSIGGFDFMPSPPPTYYQNLKKRVGDVLSDDQIKECEELGILVDRDDQGTLLQIFTKPLGDRPTIFIEIIQRVGCMMKDEEGKAYQSGGCGGFGKGNFSELFKSIEEYEKTLEAKQLVG
notes: full-length, N-terminal His tag (pET15b), E. coli BL21 (DE3); Ni-NTA, ion exchange, size exclusion; homodimers in crystal
B2: AtHPPD (Arabidopsis thaliana; N423A) (protein)
chain: B1 chain with N423A
notes: as for B1
B3: AtHPPD (Arabidopsis thaliana; F381A) (protein)
chain: B1 chain with F381A
notes: as for B1
B4: AtHPPD (Arabidopsis thaliana; Q293A) (protein)
chain: B1 chain with Q293A
notes: as for B1
B5: AtHPPD (Arabidopsis thaliana; Q307A) (protein)
chain: B1 chain with Q307A
notes: as for B1
B6: AtHPPD (Arabidopsis thaliana; S267A) (protein)
chain: B1 chain with S267A
notes: as for B1
B7: AtHPPD (Arabidopsis thaliana; N282A) (protein)
chain: B1 chain with N282A
notes: as for B1

Substrate: O=C(O)C(=O)Cc1ccc(O)cc1
Assay: purified protein
Type: biochemical, Arabidopsis thaliana
Settings: apparent, air-saturated 20 mM HEPES pH 7.0, 25 °C, 0.1 mM FeSO4, 2 mM ascorbate

Protein	Km (crystal with Co2+, 2.80 Å) [µM]	kcat (crystal with Co2+, 2.80 Å) [s⁻¹]	kcat/Km (crystal with Co2+, 2.80 Å) [M⁻¹ s⁻¹]	Km [µM]	kcat [s⁻¹]	kcat/Km [M⁻¹ s⁻¹]
B1	1.87 ± 0.37	1.08 ± 0.053	577000			
B2				15.66 ± 4.29	0.545 ± 0.061	34800
B3				9.10 ± 0.94	0.924 ± 0.032	102000
B4				90.41 ± 11.33	0.014 ± 0.001	150
B5				30.31 ± 1.67	0.176 ± 0.004	5800
B6				5.33 ± 1.59	0.249 ± 0.025	46700
B7				10.83 ± 2.33	0.039 ± 0.003	3600
